# Data taken from paper PMC6002714, “Bovine Herpesvirus 1 UL49.5 Interacts with gM and VP22 To Ensure Virus Cell-to-Cell Spread and Virion Incorporation: Novel Role for VP22 in gM-Independent UL49.5 Virion Incorporation” (Journal of Virology, 2018).
# B1: BHV-1 envelope glycoprotein M (gM) (natural protein)
# chain: MAGSAQPAAVHWRLWLAQVGVFAALALLLLITLIGAASPGAGLPCFYAAIVNYNARNLSADGGAWAQRELGARHPALFLETPTTAAFSAYTAVVLLAVAAFDVAAAIIIRRENSGGFAAAYHMNALATLATPPGALLLGALAAWTLQAAVLLLSHKIMVLAAATYLAHAGAAAAFVGLFCTAGLPGAEYAQAVHALRERSPRAHRLLGPGRAVMINLAGGLLALIIGTAPLMLGQLLGAGLGLSLAQTVVAGVTVFCLAAVLFLVLTELVLSRYTQVLPGPAFGTLVAASCIAVASHDYFHQLRGVVRTQAPGLPLGVKLALAGVALLAVAMLVLRLVRACLHHRRKGSAFYGHVSAARQQAARYIARARSSRGMAPLEGDAAALLDRGVASDDEEAVYEADARPARQPYR
# notes: glycoprotein M of bovine herpesvirus type 1, encoded by the UL10 gene; gM open reading frame nt 84816 to 86051 of GenBank JX898220 (complementary strand; residues up to 411); expressed from the viral genome; 36-kDa immature, EndoH-sensitive gM in infections with the C42S mutants; also called 43-kDa mature gM; 36-kDa immature gM; source: BHV-1 wt or UL49.5 mutant virus-infected MDBK cells, in …
# Target: the molecule itself
# Assay: non-reducing SDS-PAGE with immunoblot; lysates of virus-infected MDBK cells separated by SDS-PAGE without DTT (compared with +DTT), immunoblotted with anti-UL49.5 or anti-gM; shows only covalently (disulfide) linked complexes
protein,measurement,value
B1,stoichiometry N,2
